In data set [1] the test system is MCF7. Kind of data set: percentage of EdU-negative (G0-arrested) nuclei per well, 72 h; higher = more G0 arrest. The settings on record: reference: sequence is the full UniProt precursor, the tested protein was the secreted form or ectodomain.
The subject of data set [2] is hTERT-HMEC. Described as above. The conditions noted are these: reference: sequence is the full UniProt precursor, the tested protein was the secreted form or ectodomain.
[3] abbreviates: protein concentration 0.0225 µM.
The mark [4] stands for this setting: protein concentration 0.0357143 µM.
[5] abbreviates: protein concentration 0.357143 µM.
The mark [6] stands for this setting: protein concentration 0.0257143 µM.
The mark [7] stands for this setting: protein concentration 0.257143 µM.

± gives the standard deviation of the averaged measurements.

Consider nine sequences from the supplement of paper PMC11316812.
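Note: secreted proteins added to cultured cells, EdU pulse at the end, nuclei found by Hoechst imaging, EdU status from nuclear versus surrounding ring intensity ratio, PBS as neutral control.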

As for “MKLITILFLCSRLLLSLTQESQSEEIDCNDKDLFKAVDAALKKYNSQNQSNNQFVLYRITEATKTVGSDTFYSFKYEIKEGDCPVQSGKTWQDCEYKDAAKAATGECTATVGKRSSTKFSVATQTCQITPAEGPVVTAQYDCLGCVHPISTQSPDLEPILRHGIQYFNNNTQHSSLFMLNEVKRAQRQVVAGLNFRITYSIVQTNCSKENFLFLTPDCKSLWNGDTGECTDNAYIDIQLRIASFSQNCDIYPGKDFVQPPTKICVGCPRDIPTNSPELEETLTHTITKLNAENNATFYFKIDNVKKARVQVVAGKKYFIDFVARETTCSKESNEELTESCETKKLGQSLDCNAEVYVVPWEKKIYPTVNCQPLGMISLMKRPPGFSPFRSSRIGEIKEETTVSPPHTSMAPAQDEERDSGKEQGHTRRHDWGHEKQRKHNLGHGHKHERDQGHGHQRGHGLGHGHEQQHGLGHGHKFKLDDDLEHQGGHVLDHGHKHKHGHGHGKHKNKGKKNGKHNGWKTEHLASSSEDSTTPSAQTQEKTEGPTPIPSLAKPGVTVTFSDFQDSDLIATMMPPISPAPIQSDDDWIPDIQIDPNGLSFNPISDFPDTTSPKCPGRPWKSVSEINPTTQMKESYYFDLTDGLS”, the “percentage of EdU-negative” value in data set [1] (protein concentration 0.006 µM) amounted to 24.3 ± 0.58%; in data set [1] (protein concentration 0.06 µM) it was 26.5 ± 0.67%; in data set [2] (protein concentration 0.006 µM) it was 4.85 ± 0.42%; in data set [2] (protein concentration 0.06 µM), 6.72 ± 0.15%.
In the case of “MKLKLKNVFLAYFLVSIAGLLYALVQLGQPCDCLPPLRAAAEQLRQKDLRISQLQAELRRPPPAPAQPPEPEALPTIYVVTPTYARLVQKAELVRLSQTLSLVPRLHWLLVEDAEGPTPLVSGLLAASGLLFTHLVVLTPKAQRLREGEPGWVHPRGVEQRNKALDWLRGRGGAVGGEKDPPPPGTQGVVYFADDDNTYSRELFEEMRWTRGVSVWPVGLVGGLRFEGPQVQDGRVVGFHTAWEPSRPFPVDMAGFAVALPLLLDKPNAQFDSTAPRGHLESSLLSHLVDPKDLEPRAANCTRVLVWHTRTEKPKMKQEEQLQRQGRGSDPAIEV”, the “percentage of EdU-negative” value in data set [1] (setting [3]) was 24 ± 0.88%; in data set [1] (protein concentration 0.225 µM), 27.1 ± 1.6%; in data set [2] (setting [3]) it was 6.2 ± 0.23%; in data set [2] (protein concentration 0.225 µM), 9.73 ± 0.47%.
For “MKLLFPIFASLMLQYQVNTEFIGLRRCLMGLGRCRDHCNVDEKEIQKCKMKKCCVGPKVVKLIKNYLQYGTPNVLNEDVQEMLKPAKNSSAVIQRKHILSVLPQIKSTSFFANTNFVIIPNATPMNSATISTMTPGQITYTATSTKSNTKESRDSATASPPPAPPPPNILPTPSLELEEAEEQ [Q9H1M3]” the same measures were 23.2 ± 1.2%, 25.3 ± 1.1%, 4.86 ± 0.34% and 4.66 ± 0.73%.
In the case of “MKLLHVFLLFLCFHLRFCKVTYTSQEDLVEKKCLAKKYTHLSCDKVFCQPWQRCIEGTCVCKLPYQCPKNGTAVCATNRRSFPTYCQQKSLECLHPGTKFLNNGTCTAEGKFSVSLKHGNTDSEGIVEVKLVDQDKTMFICKSSWSMREANVACLDLGFQQGADTQRRFKLSDLSINSTECLHVHCRGLETSLAECTFTKRRTMGYQDFADVVCYTQKADSPMDDFFQCVNGKYISQMKACDGINDCGDQSDELCCKACQGKGFHCKSGVCIPSQYQCNGEVDCITGEDEVGCAGFASVTQEETEILTADMDAERRRIKSLLPKLSCGVKNRMHIRRKRIVGGKRAQLGDLPWQVAIKDASGITCGGIYIGGCWILTAAHCLRASKTHRYQIWTTVVDWIHPDLKRIVIEYVDRIIFHENYNAGTYQNDIALIEMKKDGNKKDCELPRSIPACVPWSPYLFQPNDTCIVSGWGREKDNERVFSLQWGEVKLISNCSKFYGNRFYEKEMECAGTYDGSIDACKGDSGGPLVCMDANNVTYVWGVVSWGENCGKPEFPGVYTKVANYFDWISYHVGRPFISQYNV”, the “percentage of EdU-negative” value was determined as 24.6 ± 0.98% in data set [1] (protein concentration 0.021 µM), 27.3 ± 1.3% in data set [1] (protein concentration 0.21 µM), 4.11 ± 0.1% in data set [2] (protein concentration 0.021 µM) and 4.288 ± 0.024% in data set [2] (protein concentration 0.21 µM).
On to “MKLMVLVFTIGLTLLLGVQAMPANRLSCYRKILKDHNCHNLPEGVADLTQIDVNVQDHFWDGKGCEMICYCNFSELLCCPKDVFFGPKISFVIPCNNQ”, for which the “percentage of EdU-negative” value was determined as 25.5 ± 2.2% in data set [1] (setting [3]), 25.5 ± 3.6% in data set [1] (protein concentration 0.225 µM), 5.85 ± 0.5% in data set [2] (setting [3]) and 6.71 ± 0.2% in data set [2] (protein concentration 0.225 µM).
For “MKLNLVQIFFMLLMLLLGLGMGLGLGLHMATAVLEESDQPLNEFWSSDSQDKAEATEEGDGTQTTETLVLSNKEVVQPGWPEDPILGEDEVGGNKMLRASALFQSNKDYLRLDQTDRECNDMMAHKMKEPSQSCIAQYAFIHEDLNTVKAVCNSPVIACELKGGKCHKSSRPFDLTLCELSQPDQVTPNCNYLTSVIKKHIIITCNDMKRQLPTGQ [Q5GAN6]” the same measures were 27.3 ± 3.4%, 25.2 ± 0.41%, 5.66 ± 1.3% and 5.77 ± 0.33%.
For “MKLPLLLALLFGAVSALHLRSETSTFETPLGAKTLPEDEETPEQEMEETPCRELEEEEEWGSGSEDASKKDGAVESISVPDMVDKNLTCPEEEDTVKVVGIPGCQTCRYLLVRSLQTFSQAWFTCRRCYRGNLVSIHNFNINYRIQCSVSALNQGQVWIGGRITGSGRCRRFQWVDGSRWNFAYWAAHQPWSRGGHCVALCTRGGHWRRAHCLRRLPFICSY” the same measures were 26.5 ± 0.76%, 29 ± 0.95%, 5.28 ± 0.63% and 4.45 ± 0.14%.
For the sequence “MKLQCVSLWLLGTILILCSVDNHGLRRCLISTDMHHIEESFQEIKRAIQAKDTFPNVTILSTLETLQIIKPLDVCCVTKNLLAFYVDRVFKDHQEPNPKILRKISSIANSFLYMQKTLRQCQEQRQCHCRQEATNATRVIHDNYDQLEVHAAAIKSLGELDVFLAWINKNHEVMFSA [Q9UHD0]”, the “percentage of EdU-negative” value in data set [1] (setting [4]) stood at 24.3 ± 3%; in data set [1] (setting [5]) it was 27.41 ± 0.059%; in data set [2] (setting [4]), 5.09 ± 0.068%; in data set [2] (setting [5]), 6.97 ± 1.1%.
For “MKLSGMFLLLSLALFCFLTGVFSQGGQVDCGEFQDPKVYCTRESNPHCGSDGQTYGNKCAFCKAIVKSGGKISLKHPGKC [Q6UWN8]”, the “percentage of EdU-negative” value in data set [1] (setting [6]) was determined as 24.2 ± 1.2%; in data set [1] (setting [7]), 27.2 ± 3%; in data set [2] (setting [6]), 4.92 ± 0.69%; in data set [2] (setting [7]) it was 5.15 ± 0.39%.
